Literature values, collected in publication PMC4746476.

Target: CCL21 (Homo sapiens) (UniProt O00585)
UniProt O00585, sequence (O00585 24-134): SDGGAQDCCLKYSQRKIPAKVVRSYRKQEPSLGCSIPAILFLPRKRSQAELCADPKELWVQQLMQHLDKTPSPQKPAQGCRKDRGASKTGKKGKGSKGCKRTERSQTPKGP

Kd: 10 nM
Substance: CCR7 (from UniProt P32248)
